Here are results for 2 molecules from US20250320305A1.

The target of test [1] is human CD40 expressed on cells (human) (UniProt P25942). Put plainly: flow cytometry, Raji cells. A general note: A flow cytometer gives signals particle by particle.
The target is the same in test [2]. As to the kind of experiment: flow cytometry, primary human B cells.
Test [3] deals with human CD40 extracellular domain with C-terminal His-AviTag (human) (UniProt P25942). As to the kind of experiment: SPR, antibody captured, CD40 ECD analyte.
Test [4] concerns the target biotinylated recombinant human FAP (human) (UniProt Q12884). As to the kind of experiment: SPR (Biacore). On the technique in general: In SPR one partner is held on a chip, and binding of the other changes the refractive index at the surface.
Test [5] has the same target. As to the kind of experiment: SPR (Biacore), biotinylated huFAP on CAPture chip, Fab analyte.

B1: P1AD4470, anti-CD40 control antibody (CD40 IgG1) (antibody, from a related filing, V domains shown)
VH: EVQLVESGGGLVQPGGSLRLSCAASGYSFTGYYIHWVRQAPGKGLEWVARVIPNAGGTSYNQKFKGRFTLSVDNSKNTAYLQMNSLRAEDTAVYYCAREGIYWWGQGTLVTVSS
VL: DIQMTQSPSSLSASVGDRVTITCRSSQSLVHSNGNTFLHWYQQKPGKAPKLLIYTVSNRFSGVPSRFSGSGSGTDFTLTISSLQPEDFATYFCSQTTHVPWTFGQGTKVEIKR
Broadly, the EC50 is the concentration that produces a half-maximal response. A low value points to a more potent agent. The term Kd denotes the free concentration of one partner at which half of the binding sites on the other are occupied at equilibrium, for simple one-to-one binding. For orientation: koff means a measure of how fast the partners let go of each other. The term kon denotes a measure of how fast the partners come together. B1 returned a 50% effective concentration (EC50) in test [1] of 0.09 µg/mL. The same molecule registered an EC50 in test [2] of 0.333 nM. In test [3], this molecule displayed a Kd of 4.6 nM, an off-rate (koff) of 0.00781 s⁻¹ and a kon of 1.69e+06 M⁻¹ s⁻¹.

B2: 4B9_Fab (Fab, from a related filing, V domains shown)
VH: EVQLLESGGGLVQPGGSLRLSCAASGFTFSSYAMSWVRQAPGKGLEWVSAIIGSGASTYYADSVKGRFTISRDNSKNTLYLQMNSLRAEDTAVYYCAKGWFGGFNYWGQGTLVTVSS
VL: EIVLTQSPGTLSLSPGERATLSCRASQSVTSSYLAWYQQKPGQAPRLLINVGSRRATGIPDRFSGSGSGTDFTLTISRLEPEDFAVYYCQQGIMLPPTFGQGTKVEIK
On to B2, for which, in test [4], the Kd stood at 0.279 nM, the T ½ was found to be 55 min, the off-rate constant (koff) was found to be 0.000208 s⁻¹ and the on-rate (kon) is 747000 M⁻¹ s⁻¹. Also, in test [5], the Kd is 0.43 nM, the off-rate (koff) was 0.00078 s⁻¹ and the kon is 1.82e+06 M⁻¹ s⁻¹.
